Source: paper PMC3528742

Key:
[1] = target: human c-NADP-ME H51A/D90A (human) (UniProt P48163); test: AUC; sedimentation velocity, 0.3 mg/ml protein, 30 mM Tris-acetate pH 7.4, without urea, 20°C, 42,000 rpm, SEDFIT continuous size distribution
[2] = target: human c-NADP-ME H51A/D139A (human) (UniProt P48163); test: as above
[3] = target: human c-NADP-ME H142A (human) (UniProt P48163); test: as above
[4] = target: human c-NADP-ME H142A/D568A (human) (UniProt P48163); test: as above
[5] = target: human c-NADP-ME W572A (human) (UniProt P48163); test: as above
[6] = target: T1, human cytosolic NADP+-dependent malic enzyme, wild type (human), P48163; test: AUC; sedimentation velocity, 0.3 mg/ml protein, preincubated with 2 M urea in 30 mM Tris-acetate pH 7.4 at 25°C for 16 h, run at 20°C; settings: remark: other sources report otherwise
T1 chain: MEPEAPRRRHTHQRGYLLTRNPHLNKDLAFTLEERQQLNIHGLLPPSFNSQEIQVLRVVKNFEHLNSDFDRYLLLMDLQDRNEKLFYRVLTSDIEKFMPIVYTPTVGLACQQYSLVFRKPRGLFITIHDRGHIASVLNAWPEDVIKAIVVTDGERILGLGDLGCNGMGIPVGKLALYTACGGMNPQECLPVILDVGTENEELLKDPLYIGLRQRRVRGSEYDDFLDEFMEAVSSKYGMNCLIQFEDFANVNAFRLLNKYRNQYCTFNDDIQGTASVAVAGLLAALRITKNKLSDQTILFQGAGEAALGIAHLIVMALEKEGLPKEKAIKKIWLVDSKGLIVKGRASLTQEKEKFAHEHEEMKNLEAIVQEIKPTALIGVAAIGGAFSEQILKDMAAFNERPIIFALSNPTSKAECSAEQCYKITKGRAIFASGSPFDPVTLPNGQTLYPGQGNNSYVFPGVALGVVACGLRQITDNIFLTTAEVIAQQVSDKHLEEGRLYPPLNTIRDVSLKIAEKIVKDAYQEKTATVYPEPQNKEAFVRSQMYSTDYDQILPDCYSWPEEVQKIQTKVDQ

How did the stoichiometry N [1] turn out when “human c-NADP-ME H51A/D90A (from UniProt P48163 13-564) (enzyme)” was run?
Its stoichiometry N is 2.

Which stoichiometry N [2] does the source give for “human c-NADP-ME H51A/D139A (from UniProt P48163 13-564) (enzyme)” here?
Its stoichiometry N is 2.

With “human c-NADP-ME H142A (from UniProt P48163 13-564) (enzyme)” as the molecule, how does the stoichiometry N [3] read?
Its stoichiometry N is 2.

How did the stoichiometry N [4] turn out when “human c-NADP-ME H142A/D568A (from UniProt P48163 13-564) (enzyme)” was run?
Its stoichiometry N is 2.

For “human c-NADP-ME W572A (from UniProt P48163 13-564) (enzyme)”, which stoichiometry N [5] is on record?
Its stoichiometry N is 2.

B1: human cytosolic NADP+-dependent malic enzyme, wild type, P48163 1-572 (enzyme)
chain: T1 chain
B1 was tested. Which stoichiometry N [6] did it give?
Its stoichiometry N is 2.
